Assay [1] addresses endogenous Dvl of HEK293 cells. Kind of assay: cell-based or functional assay.
In assay [2] the target is T1, Myc-tagged mNkd protein, in vitro translated (mouse, UniProt Q99MH6 1-471, labelled with 35S-methionine).
T1 construct: Made with the TNT coupled reticulocyte lysate system in the presence of 35S-methionine; also called Myc-mNkd; 35S-mNkd; not shown: Myc tag
T1 sequence: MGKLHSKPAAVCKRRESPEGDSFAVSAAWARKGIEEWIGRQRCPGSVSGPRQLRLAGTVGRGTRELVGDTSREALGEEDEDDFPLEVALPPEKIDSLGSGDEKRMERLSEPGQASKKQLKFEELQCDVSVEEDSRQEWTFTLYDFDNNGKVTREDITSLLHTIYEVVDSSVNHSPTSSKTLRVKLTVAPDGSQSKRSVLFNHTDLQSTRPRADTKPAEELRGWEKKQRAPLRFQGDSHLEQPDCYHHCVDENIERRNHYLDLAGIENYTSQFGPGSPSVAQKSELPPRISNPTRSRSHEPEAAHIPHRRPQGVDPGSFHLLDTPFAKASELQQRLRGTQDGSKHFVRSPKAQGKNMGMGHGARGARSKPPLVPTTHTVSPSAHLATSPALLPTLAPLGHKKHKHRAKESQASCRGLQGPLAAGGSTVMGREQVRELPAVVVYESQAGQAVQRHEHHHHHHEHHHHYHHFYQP
Kind of assay: GST pull-down, electrophoresis and autoradiography.

“Xpress tagged mNkd (from UniProt Q99MH6 1-471)” registered an inhibition of the activation of the LEF-1 luciferase reporter by Wnt in HEK 293 cells in assay [1] of 75%.

B1: GST fusion of the PDZ domain of Drosophila Dvl (other, UniProt P51140 252-324, looked up)
chain: TVSINMEAVNFLGISIVGQSNRGGDGGIYVGSIMKGGAVALDGRIEPGDMILQVNDVNFENMTNDEAVRVLRE
notes: domain: PDZ; also called PDZ domain alone; not shown: glutathione-S-transferase (GST)
B1: in assay [2], the binding result is “no binding”.
